Source: patent WO2009147196A1 (dated 2009)

Target: Rev of the HIV-1 NL4.3 molecular clone (HIV-1)
Assay: cell-based or functional assay

B1: Nb_190 expressed intracellularly (pcDNA3.1-Nb_190; HIV-1 NL4.3-Nb_190) (VHH)
VHH: QVQLQESGGGLVQAGGSLRLSCAASGSIFSINTMGWYRQAPGKQRELVAFATSGGSTNYPDSVKGRFTISRDNVKNTVYLQMNSLKPEDTAVYYCNIDGFLGSLYKDYWSQGTQVTVSS
- virus production (p24) from the HIV-1 NL4.3-Nb_190 clone in HEK 293T cells: 300 fold reduction
